Key:
[1] = tested on: IFN-γR2/EBFP and IFN-γR2/GFP; assay: FRET between IFN-γR2/EBFP and IFN-γR2/GFP in COS-1 cells without IFN-γR1 chain; type: cell-based, human; conditions: cells expressing only IFN-γR2 chains, no IFN-γR1 chain; FIG. 9 left panels
Text: (§1) FIG. 9 Fluorescence transfer between the FL-IFN-γR2/GFP and FL-IFN-γR2/EBFP chains. Both FL-IFN-γR2/GFP and FL-IFN-γR2/EBFP were transfected into COS-1 cells in the absence (left panels) or presence (right panels) of the unlabeled IFN-γR1 chain. Spectra were taken in the presence and absence of IFN-γ.
(§2) Construction of Vectors to Measure FRET in Cells and Transfections. As noted above, green and blue fluorescent proteins (GFP and BFP) were discovered and developed by a number of groups that enabled these fluorescent protein to be seen and localized in cells; and several groups have begun to use FRET to study the interactions of proteins in cells. In our studies, the IFN-γ receptor complex (FIG. 1) was used as the model system to evaluate the ability of FRET to provide insight into the structure of the receptor and to determine the molecular dynamics after attachment of the ligand IFN-γ to the receptor. In order to carry out these studies, IFN-γR1 and IFN-γR2 chains with BFP (or EBFP) and GFP fused to the carboxyl termini of their intracellular domains were constructed (FIG. 2, top). By fusing the DNA encoding the blue fluorescent protein (BFP) to the DNA encoding the carboxyl terminus of the IFN-γR1 chain and by fusing the DNA encoding GFP to the DNA encoding the carboxyl terminus of the IFN-γR2 chain, the cells produce IFN-γR11/BFP and IFN-γR2/GFP. […]

[2] = tested on: Chinese hamster ovary (CHO) q3 cells; assay: MHC class I antigen induction in CHO q3 cells transfected with human receptor chains; type: cell-based; conditions: CHO q3 cells with human receptor chains with or without GFP and EBFP; FIG. 3
Text: The human receptor chains (IFN-γR1 and FL-IFN-γR2) without fluorescent proteins (left panel) and those with the fluorescent proteins (IFN-γR1/EBFP and FL-IFN-γR2/GFP) (right panel) were transfected into Chinese hamster ovary (CHO) q3 cells and MHC class I antigen induction measured in response to hamster and human IFN-γ. In the absence of the human receptor chains, Hu-IFN-γ has no effect on CHO cells (78, 87, 98). […] The CHO q3 cells were derived as follows. Hamster UCH-12 cells containing a stable translocation of human chromosome 3q were obtained from Carol Jones and David Patterson. UCH-12 cells were transfected with plasmid pJYI50R1.1 that encodes the intact HLAB7 gene (101) and the resulting cells designated q3. […] The stably transfected population of q3 cells was grown in F12 media supplemented with 10% FBS without selecting antibiotics. […] After three rounds of selection, individual clones were isolated by limiting dilution and amplified. […] MHC class I antigen induction in response to IFN-γ was performed as described (93).
Stable transformants were made in the CHO-derived cell line q3 by the Lipofectin method and limiting dilution clonal isolation.
Images, Spectra and Activity of human IFN-γR2/GFP and IFN-γR1/BFP transfected into COS-1 cells. […]

CHO cells = conditions: absence of the human receptor chains; cited from earlier work
[3] = target: T1, IFN-γ receptor complex (IFN-γR1/EBFP and IFN-γR2/GFP) (Homo sapiens, UniProt P15260); assay: FRET between IFN-γR1/BFP (EBFP) and IFN-γR2/GFP (matched pair) in single live COS-1 cells; type: cell-based
T1 construct: EBFP (enhanced blue fluorescent protein); expressed in transfected cells; host or cells: COS-1
T1 sequence (P15260 18-489): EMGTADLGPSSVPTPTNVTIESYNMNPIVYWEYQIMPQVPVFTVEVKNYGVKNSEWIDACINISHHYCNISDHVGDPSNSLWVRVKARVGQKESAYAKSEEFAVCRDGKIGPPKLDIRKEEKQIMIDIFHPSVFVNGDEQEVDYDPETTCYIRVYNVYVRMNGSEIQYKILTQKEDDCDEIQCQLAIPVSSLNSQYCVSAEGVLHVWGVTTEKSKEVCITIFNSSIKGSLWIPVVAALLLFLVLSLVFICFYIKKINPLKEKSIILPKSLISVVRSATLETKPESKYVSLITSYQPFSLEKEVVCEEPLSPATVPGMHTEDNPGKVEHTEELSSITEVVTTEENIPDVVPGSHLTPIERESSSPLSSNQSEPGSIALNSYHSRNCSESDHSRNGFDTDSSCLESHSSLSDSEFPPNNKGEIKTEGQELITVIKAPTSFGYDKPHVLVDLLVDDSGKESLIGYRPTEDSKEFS
Text: A mammalian expression vector was used to express human interferon γ receptor chains one and two (IFN-γR1 and IFN-γR2) with blue- and green-fluorescent proteins (BFP and GFP) fused to the carboxyl terminus of the chains, respectively. A tandem vector was used so that both chains were expressed in COS-1 cells under the control of the EF-1 promoter. A single cell expressing both of these chains was used to carry out the experiment to examine the effect of human IFN-γ on the distance between the chains and to determine if the chains were associated prior to addition of ligand. This is accomplished by using FRET.
Construction of Vectors to Measure FRET in Cells and Transfections. As noted above, green and blue fluorescent proteins (GFP and BFP) were discovered and developed by a number of groups that enabled these fluorescent protein to be seen and localized in cells; and several groups have begun to use FRET to study the interactions of proteins in cells. In our studies, the IFN-γ receptor complex (FIG. 1) was used as the model system to evaluate the ability of FRET to provide insight into the structure of the receptor and to determine the molecular dynamics after attachment of the ligand IFN-γ to the receptor. […]

[4] = target: T2, IFN-γR1/EBFP and IL-10R2/GFP (Homo sapiens, UniProt P15260); assay: FRET between mismatched receptor pair IFN-γR1/EBFP and IL-10R2/GFP in COS-1 cells; type: cell-based; conditions: two-photon excitation at 760 nm; FIG. 7
T2 construct: expressed in transfected cells; host or cells: COS-1
T2 sequence (P15260 18-489): T1 sequence (P15260 18-489)
Text: as §2, with “IFN-γR2/GFP. In this way, the BFP and GFP were fused to the intracellular domains of IFN-γR1 and IFN-γR2, respectively (FIG. 2), to monitor interactions among these two receptor chains in intact cells-with and-without IFN-γ treatment.” for “IFN-γR2/GFP.”

[5] = target: T3, IFN-γR2/EBFP, IFN-γR2/GFP and IFN-γR1 chains (Homo sapiens, UniProt P15260); assay: FRET between IFN-γR2/EBFP and IFN-γR2/GFP in COS-1 cells with unlabeled IFN-γR1 chain; type: cell-based; conditions: cells expressing IFN-γR2/EBFP, FIG. 9 right panel
T3 construct: expressed in transfected cells; host or cells: COS-1
T3 sequence (P15260 18-489): T1 sequence (P15260 18-489)
Text: as §1, §2

For “IFN-γ: protein secreted by lymphocytes, specifically T-cells and NK-cells; ligand of the IFN-γ receptor complex”, which “change in FRET spectrum in the presence of IFN-γ” value [1] is on record?
Its value is “no change in the spectrum”.

And the “MHC class I antigen induction” value [2]?
The value was “as effective as that of hamster IFN-γ”.

What about the “effect on CHO cells” value (CHO cells) of the same molecule?
The value was “no effect”.

B1: IFN-γ: protein secreted by lymphocytes, specifically T-cells and NK-cells; ligand of the IFN-γ receptor complex (protein, UniProt P01579 24-161, looked up)
Interferon gamma: QDPYVKEAENLKKYFNAGHSDVADNGTLFLGILKNWKEESDRKIMQSQIVSFYFKLFKNFKDDQSIQKSVETIKEDMNVKFFNSNKKKRDDFEKLTNYSVTDLNVQRKAIHELIQVMAELSPAAKTGKRKRSQMLFRG
With B1 as the molecule, how does the “effect on the FRET of the matched receptor pair” value ([3]; IFN-γ 3500 units/ml added to medium, two-photon excitation at 760 nm, FIG. 8) read?
Its value is “major reduction in the FRET”.

What about the “FRET signal after treatment of cells with IFN-γ” value ([3]; single COS-1 cell expressing IFN-γR1 and IFN-γR2 fused to BFP and GFP, excited at 760 nm, FIGS. 12 and 13) of the same molecule?
Its value is “almost completely abolished”.

And the “effect on the fluorescence spectrum of the mismatched pair” value [4]?
The value was “did not affect the spectrum”.

And the “change in FRET spectrum in the presence of IFN-γ” value [5]?
Its value is “large change in the spectrum”.

Source: patent publication US20030044847A1, “Methods for anlyzing interactions between proteins in live and intact cells” (priority 2001, published 2003)
